Data: article PMC11287749, “Optical Aptamer-Based Cytokine Nanosensor Detects Macrophage Activation by Bacterial Toxins”

Biological target: IL-6 (human recombinant, Invitrogen) (Homo sapiens, UniProt P05231 30-212)
Experiment: SWCNT NIR fluorescence; PBS, 5250 ng/mL IL-6, 3 h; p = 0.66; 0.5 mg/L SWCNT-ssDNA in 1x PBS (or 1x PBS + 10% FBS), 5250 ng/mL IL-6, 120 uL, up to 180 min; pH and temperature not stated in the material
Settings: protein: commercial

Sequence of IL-6 (human recombinant, Invitrogen) (P05231 30-212): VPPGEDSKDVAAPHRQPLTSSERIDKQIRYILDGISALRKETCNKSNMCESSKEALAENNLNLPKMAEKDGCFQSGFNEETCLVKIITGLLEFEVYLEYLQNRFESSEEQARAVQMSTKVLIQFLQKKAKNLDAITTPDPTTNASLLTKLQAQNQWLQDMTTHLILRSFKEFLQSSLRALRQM

Does GTGTGTGTGTGTGTGTGTGTGTGTGTGTGT (ssDNA, noncovalently adsorbed on SWCNT) [(GT)15 control] bind?
Result: no binding
